Assay results taken from patent US20240327500A1 (NATIONAL UNIVERSITY OF SINGAPORE, published 2024).
No end group written: not given here.

T1: HBsAg loop 2 linear peptide (Hepatitis B virus, not fully specified; cysteine pairing not given here)
T1 construct: The peptide is printed with alternative residues at one position
T1 peptide: CTKPTDGNCT

T2: HBsAg loop 1 linear peptide (Hepatitis B virus, not fully specified; cysteine pairing not given here)
T2 construct: The peptide is printed with alternative residues at two positions
T2 peptide: TCTTPAQGNSMFPSC

B1: mAb006-11-IgG4 (antibody, V domains shown)
VH: QLQLQESGPGLVKPSETLSLTCTVSGGSMNINDYYWDWVRLSPGKGLEWIGAIYSSGTTYYNPSLKSRVTISVDMSKDQFSLRLSSVTAADTAVYYCVRDGPHRLYYGSGTYYNPRGGYYSYALDVWGQGTTVIV
VL: QLVLTQSPSASASLGASVKLTCTLSSGHGTYAIAWHQLRSEKGPRYLMKVNSDGSHIKGDGIPDRFSGSSSGAERYLIISSLQSEDEADYYCQTWGTGIVIFGGGTKLTVL
B2: mAb006-11-IgG1 (antibody, V domains shown)
VH: B1 VH
VL: B1 VL
notes: also called mAb11; mAb006-11G1
B3: mAb006-11-IgG3 (antibody, V domains shown)
VH: B1 VH
VL: B1 VL
B4: mAb006-11-IgG2 (antibody, V domains shown)
VH: B1 VH
VL: B1 VL

Experiments:
HBV virions (Genotype D) = HBV virions (Genotype D) (Hepatitis B virus genotype D); assay: cell-based or functional assay
HBsAg genotype B (adw) = molecular target: T3, HBsAg genotype B (adw) (Hepatitis B virus genotype B (adw), UniProt Q9PWW3 175-400); assay: ELISA on HBsAg of four genotypes
T3 construct: the form coated in the ELISA is not described

HBsAg genotype A (adw2) = molecular target: T4, HBsAg genotype A (adw2) (Hepatitis B virus genotype A (adw2), UniProt P03141 175-400); assay: ELISA on HBsAg of four genotypes
T4 construct: the form coated in the ELISA is not described

HBsAg genotype C (adr) = molecular target: T5, HBsAg genotype C (adr) (Hepatitis B virus genotype C (adr), UniProt P30019 1-226); assay: ELISA on HBsAg of four genotypes
T5 construct: the form coated in the ELISA is not described

recombinant small-HBsAg = molecular target: T6, recombinant small-HBsAg (Hepatitis B virus); assay: QCM (Attana Cell A200), rHBsAg amine-coupled on chip, 25 C
T6 construct: also called recombinant HBsAg; rHBsAg

[1] = molecular target: T1, HBsAg loop 2 linear peptide; assay: direct ELISA on coated linear peptide (50 ng/well)
[2] = molecular target: T2, HBsAg loop 1 linear peptide; assay: direct ELISA on coated linear peptide (50 ng/well)

| Binder | EC50, in-vitro neutralization (HBeAg data) (HBV virions (Genotype D)) | binding result (HBsAg genotype B (adw)) | binding result (HBsAg genotype A (adw2)) | binding result (HBsAg genotype C (adr)) | Kd (recombinant small-HBsAg) | binding result [1] | binding result [2] |
| --- | --- | --- | --- | --- | --- | --- | --- |
| B1 | 0.242 nM | – | – | – | – | – | – |
| B2 | 12.6 nM | binds | binds | binds | 22.7 nM | no binding | no binding |
| B3 | 1.05 nM | – | – | – | – | – | – |
| B4 | 1.32 nM | – | – | – | – | – | – |
